Measured values as given in patent US11078245B2, “Colon and pancreas cancer peptidomimetics” (PRECISION BIOLOGICS, INC., priority 2010, dated 2021).
Values joined by “and” are separate entries in the source; they are usually repeats but may differ in a detail not shown here. Equal entries are not always repeated. Where two headings read alike, the source gives them in different places.

Tests used:
[1] = test system: LS174T colorectal tumor; assay: LS174T colorectal tumor xenograft model; type: in vivo, nude mice; details: same treatment regimen; last day P=0.0145
Protocol: Since the LS174T colorectal tumor cell line served as a good target in vitro in the ADCC assay, this cell line was used in a xenograft tumor model. The LS174T cells were implanted subcutaneously in nude mice and the same treatment regimen was administered to these mice. […] Nonetheless, we observed a 2-3-fold reduction in tumor growth in NEO-101 treated mice compared to the 2 control groups of mice following the treatment cycles. The anti-tumor effect upon treatment with NEO-101 was significant on the last day of measuring tumors with P=0.0145 by one-way ANOVA. However, many of the tumors in the control groups became ulcerated and were greater than 1000 mm^3 and the study was terminated.

[2] = test system: Normal colon; assay: Immunohistochemistry: human tissues with biotinylated NEO-101; type: binding
Description: (§1) Consequently, the positively stained “normal” tissues may have already undergone genotypic changes (“pre-cancerous”) resulting in the expression of the aberrantly glycosylated MUC5AC antigen that could lead to detection of carcinoma with NEO-101.

[3] = test system: Prostate cancer; assay: as above; type: binding
Description: as §1

[4] = test system: Colon cancer; assay: as above; type: binding
Description: as §1

[5] = test system: Pancreas cancer; assay: as above; type: binding
Description: as §1

[6] = test system: Normal prostate; assay: as above; type: binding
Description: as §1

[7] = test system: Normal pancreas; assay: as above; type: binding
Description: as §1

[8] = test system: Normal uterus; assay: as above; type: binding
Description: as §1

[9] = test system: Uterus cancer; assay: as above; type: binding
Description: as §1

B1: NEO-101: Chimeric NEO-101 antibody, engineered in CHO-DG44 production cell clone 4B7; targets a variant of MUC5AC (protein)
light: QVVLTQSPVIMSASPGEKVTMTCSASSSISYMYWYQQKPGTSPKRWIYDTSKLASGVPARFSGSGSGTSYSLTISNMEAGDAATYYCHQRDSYPWTFGGGTNLEIK
heavy: QVQLKESGPDLVAPSQSLSITCTVSGFSLSKFGVNWVRQPPGKGLEWLGVIWGDGSTSYNSGLISRLSISKENSKSQVFLKLNSLQADDTATYYCVKPGGDYWGHGTSVTVSS
reduction in tumor growth compared to the 2 control groups [1]: 2-3 fold
Tissue staining intensity +2 [2]: (25%)
Tissue staining intensity Negative [2]: (75%)
Total Positive [2]: (25%)
Tissue staining intensity +2 ([2]; samples/total): 1/4
Tissue staining intensity Negative ([2]; samples/total): 3/4
Total Positive ([2]; samples/total): one of four and 1/4
Tissue staining intensity +1 [3]: (12%)
Tissue staining intensity +2 [3]: (12%)
Tissue staining intensity Negative [3]: (75%)
Total Positive [3]: (25%)
Tissue staining intensity +1 ([3]; samples/total): 5/40
Tissue staining intensity +2 ([3]; samples/total): 5/40
Tissue staining intensity Negative ([3]; samples/total): 30/40
Total Positive ([3]; samples/total): 10/40
Tissue staining intensity +1 [4]: (15%)
Tissue staining intensity +2 [4]: (8%)
Tissue staining intensity +4 [4]: (10%)
Tissue staining intensity Negative [4]: (56%)
Tissue staining intensity Weak [4]: (10%)
Tissue staining intensity +1 ([4]; samples/total): 7/48
Tissue staining intensity +2 ([4]; samples/total): 4/48
Tissue staining intensity +4 ([4]; samples/total): 5/48
Tissue staining intensity Negative ([4]; samples/total): 27/48
Tissue staining intensity Weak ([4]; samples/total): 5/48
Total Positive ([4]; samples/total): 21/48
Tissue staining intensity +1 [5]: (16%)
Tissue staining intensity +2 [5]: (6%)
Tissue staining intensity +3 [5]: (17%)
Tissue staining intensity +4 [5]: (9%)
Tissue staining intensity Negative [5]: (52%)
Tissue staining intensity +1 ([5]; samples/total): 17/108
Tissue staining intensity +2 ([5]; samples/total): 7/108
Tissue staining intensity +3 ([5]; samples/total): 18/108
Tissue staining intensity +4 ([5]; samples/total): 10/108
Tissue staining intensity Negative ([5]; samples/total): 56/108
Total Positive ([5]; samples/total): 52/108
Tissue staining intensity Negative [6]: (100%)
Total Positive [6]: (0%)
Tissue staining intensity Negative ([6]; samples/total): 4/4
Total Positive ([6]; samples/total): 0/4
Tissue staining intensity Negative [7]: (100%)
Total Positive [7]: (0%)
Tissue staining intensity Negative ([7]; samples/total): 3/3
Total Positive ([7]; samples/total): 0/3
Tissue staining intensity Negative [8]: (100%)
Total Positive [8]: (0%)
Tissue staining intensity Negative ([8]; samples/total): 12/12
Total Positive ([8]; samples/total): 0/12
Tissue staining intensity +2 [9]: (5%)
Tissue staining intensity +3 [9]: (19%)
Tissue staining intensity Negative [9]: (76%)
Total Positive [9]: (24%)
Tissue staining intensity +2 ([9]; samples/total): 2/42
Tissue staining intensity +3 ([9]; samples/total): 8/42
Tissue staining intensity Negative ([9]; samples/total): 32/42
Total Positive ([9]; samples/total): 10/42
